Data: publication PMC10516966

Target: T1, Rat TRPV2 (transient receptor potential vanilloid 2 channel), full length, C-terminal 1D4 tag (rat), Q9WUD2
T1 chain: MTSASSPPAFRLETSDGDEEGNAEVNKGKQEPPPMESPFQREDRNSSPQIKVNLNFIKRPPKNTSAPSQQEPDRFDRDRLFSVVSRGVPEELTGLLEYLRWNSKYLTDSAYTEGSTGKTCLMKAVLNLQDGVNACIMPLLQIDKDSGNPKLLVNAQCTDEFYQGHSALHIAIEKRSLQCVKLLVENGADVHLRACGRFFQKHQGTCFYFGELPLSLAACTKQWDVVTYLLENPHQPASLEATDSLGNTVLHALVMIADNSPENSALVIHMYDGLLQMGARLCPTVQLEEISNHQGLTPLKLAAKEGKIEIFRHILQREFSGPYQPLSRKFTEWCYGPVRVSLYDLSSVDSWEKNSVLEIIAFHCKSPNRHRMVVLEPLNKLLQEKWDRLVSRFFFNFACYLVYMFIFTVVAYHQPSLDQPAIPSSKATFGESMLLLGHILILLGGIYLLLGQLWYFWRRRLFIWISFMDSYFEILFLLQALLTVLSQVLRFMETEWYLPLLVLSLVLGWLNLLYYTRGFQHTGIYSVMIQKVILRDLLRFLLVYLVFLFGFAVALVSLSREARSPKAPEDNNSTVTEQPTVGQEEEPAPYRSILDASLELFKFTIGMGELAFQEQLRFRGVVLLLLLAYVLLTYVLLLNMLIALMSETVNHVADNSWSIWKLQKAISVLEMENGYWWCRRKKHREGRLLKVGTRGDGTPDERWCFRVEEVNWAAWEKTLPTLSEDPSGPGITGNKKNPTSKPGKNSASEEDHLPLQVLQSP
Assay: high-speed atomic force microscopy (HS-AFM); TRPV2 reconstituted into soy polar lipid membranes (LPR 0.5-0.7) on mica; imaging buffer 20 mM Hepes pH 8.0, 150 mM NaCl; contacts between neighbouring tetramers scored as connected or not in binarised frames; dwell times fitted with a single exponential; thick continuous connections excluded
Conditions: remark: other sources report otherwise

B1: Rat TRPV2 (transient receptor potential vanilloid 2 channel), full length, C-terminal 1D4 tag, Q9WUD2 1-761 (natural protein)
chain: T1 chain
With B1 as the binder, how does the connection lifetime time constant read?
The connection lifetime time constant was 2.2 s.
